Results reported in patent US20220204638A1, “Combination Therapies Comprising Daratumumab, Bortezomib, Thalidomide and Dexamethasone and Their Uses” (Janssen Biotech, Inc., priority 2019, published 2022).

What was measured:
[1] = system: relapsed and refractory multiple myeloma; experiment: DARZALEX monotherapy safety, three open-label clinical trials (N=156); format: in vivo, human
Excerpt: Serious adverse reactions were reported in 51 (33%) patients.
Table 23 describes Grade 3-4 laboratory abnormalities reported at a rate of ≥10%.

[2] = system: relapsed or refractory multiple myeloma; experiment: SIRIUS (NCT01985126) open-label DARZALEX monotherapy trial; format: in vivo, human
Excerpt: (§1) Treatment continued until unacceptable toxicity or disease progression.
The median patient age was 63.5 years (range: 31 to 84 years), 49% were male and 79% were Caucasian. Patients had received a median of 5 prior lines of therapy. […] Prior therapies included bortezomib (99%), lenalidomide (99%), pomalidomide (63%) and carfilzomib (50%).

[3] = system: relapsed or refractory multiple myeloma; experiment: GEN501 (NCT00574288) open-label dose escalation monotherapy trial; format: in vivo, human
Excerpt: as §1
Seventy-four percent of patients had received prior ASCT. Prior therapies included bortezomib (100%), lenalidomide (95%), pomalidomide (36%) and carfilzomib (19%).

[4] = system: multiple myeloma; experiment: Clinical trials pooled, monotherapy and combination treatments (N=2,066); format: in vivo, human
[5] = Immunogenicity, anti-daratumumab antibodies in clinical trials; format: in vivo, human
Excerpt: As with all therapeutic proteins, there is the potential for immunogenicity. The detection of antibody formation is highly dependent on the sensitivity and specificity of the assay. Additionally, the observed incidence of antibody (including neutralizing antibody) positivity in an assay may be influenced by several factors including assay methodology, sample handling, timing of sample collection, concomitant medications, and underlying disease. For these reasons, comparison of the incidence of antibodies to daratumumab in the studies described below with the incidence of antibodies in other studies or to other products may be misleading. […] One patient administered DARZALEX as combination therapy, developed transient neutralizing antibodies against daratumumab. However, this assay has limitations in detecting anti-daratumumab antibodies in the presence of high concentrations of daratumumab; therefore, the incidence of antibody development might not have been reliably determined.

[6] = Clinical pharmacokinetics of daratumumab; format: in vivo, human
Excerpt: Daratumumab volume of distribution was 4.7±1.3 L as monotherapy and 4.4±1.5 L as combination therapy following administration of the approved dosage.
Daratumumab clearance decreased with increasing dose and with multiple dosing.
The effect of severe (total bilirubin>3 times ULN and any AST) hepatic impairment on daratumumab pharmacokinetics is unknown.

[7] = target: T1, CD38 on red blood cells (Homo sapiens, UniProt P28907); experiment: Interference with Indirect Antiglobulin Test (Indirect Coombs test)
T1 construct: endogenous in cells; host or cells: red blood cells (reagent RBCs used in serological testing)
Excerpt: Daratumumab binds to CD38 on red blood cells (RBCs) and results in a positive Indirect Antiglobulin Test (Indirect Coombs test). Daratumumab-mediated positive indirect antiglobulin test may persist for up to 6 months after the last daratumumab infusion. Daratumumab bound to RBCs masks detection of antibodies to minor antigens in the patient's serum [see References (15)]. The determination of a patient's ABO and Rh blood type are not impacted [see Drug Interactions (7.1)].
Daratumumab binds to CD38 on RBCs and interferes with compatibility testing, including antibody screening and cross matching. Daratumumab interference mitigation methods include treating reagent RBCs with dithiothreitol (DTT) to disrupt daratumumab binding [see References (15)] or genotyping. Since the Kell blood group system is also sensitive to DTT treatment, K-negative units should be supplied after ruling out or identifying alloantibodies using DTT-treated RBCs.

[8] = Storage of diluted DARZALEX solution; format: physicochemical
Excerpt: Prepare the solution for infusion using aseptic technique as follows: • Calculate the dose (mg), total volume (mL) of DARZALEX solution required and the number of DARZALEX vials needed based on patient actual body weight. • Check that the DARZALEX solution is colorless to pale yellow. […] Infusion bags/containers must be made of either polyvinylchloride (PVC), polypropylene (PP), polyethylene (PE) or polyolefin blend (PP+PE). Dilute under appropriate aseptic conditions. Discard any unused portion left in the vial. • Gently invert the bag/container to mix the solution. […] The diluted solution may develop very small, translucent to white proteinaceous particles, as daratumumab is a protein. […] (59° F.-77° F.) and in room light. Diluted solution may be kept at room temperature for a maximum of 15 hours (including infusion time). • If not used immediately, the diluted solution can be stored prior to administration for up to 24 hours at refrigerated conditions 2° C.-8° C. (36° F.-46° F.) and protected from light.

[9] = system: NK cells; experiment: Pharmacodynamics, NK cell counts; format: in vivo, human; conditions: peripheral whole blood and bone marrow
Excerpt: NK cells express CD38 and are susceptible to daratumumab mediated cell lysis.

[10] = Clinical pharmacokinetic drug-drug interaction assessments; conditions: human, in vivo
[11] = system: multiple myeloma, prior PI and immunomodulatory agent; experiment: EQUULEUS (NCT01998971) open-label trial, DARZALEX with pomalidomide and dexamethasone
Protocol: In [sequence], patients receiving daratumumab combination treatment (n=97) were administered the first 16 mg/kg daratumumab dose at Week 1 split over two days i.e. 8 mg/kg on Day 1 and Day 2 respectively.
Pomalidomide (4 mg once daily orally on Days 1-21 of repeated 28-day [4-week] cycles) was given with low dose oral or intravenous dexamethasone 40 mg/week (reduced dose of 20 mg/week for patients>75 years or BMI<18.5).
The median patient age was 64 years (range: 35 to 86 years) with 8% of patients≥75 years of age. Patients in the study had received a median of 4 prior lines of therapy. Seventy-four percent (74%) of patients had received prior ASCT. Ninety-eight percent (98%) of patients received prior bortezomib treatment, and 33% of patients received prior carfilzomib. All patients received prior lenalidomide treatment, with 98% of patients previously treated with the combination of bortezomib and lenalidomide. Eighty nine percent (89%) of patients were refractory to lenalidomide and 71% refractory to bortezomib; 64% of patients were refractory to bortezomib and lenalidomide.

DARZALEX: IgG1κ human monoclonal antibody against CD38, HC SEQ ID NO: 9 and LC SEQ ID NO: 10
Serious adverse reactions ([1]; 16 mg/kg monotherapy): 33% | Arthralgia, Any Grade ([1]; human, in vivo): 17% | Arthralgia, Grade 3 ([1]; human, in vivo): 0% | Arthralgia, Grade 4 ([1]; human, in vivo): 0% | Back pain, Any Grade ([1]; human, in vivo): 23% | Back pain, Grade 3 ([1]; human, in vivo): 2% | Back pain, Grade 4 ([1]; human, in vivo): 0% | Chills, Any Grade ([1]; human, in vivo): 10% | Chills, Grade 3 ([1]; human, in vivo): 0% | Chills, Grade 4 ([1]; human, in vivo): 0% | Constipation, Any Grade ([1]; human, in vivo): 15% | Constipation, Grade 3 ([1]; human, in vivo): 0% | Constipation, Grade 4 ([1]; human, in vivo): 0% | Cough, Any Grade ([1]; human, in vivo): 21% | Cough, Grade 3 ([1]; human, in vivo): 0% | Cough, Grade 4 ([1]; human, in vivo): 0% | Decreased appetite, Any Grade ([1]; human, in vivo): 15% | Decreased appetite, Grade 3 ([1]; human, in vivo): 1% | Decreased appetite, Grade 4 ([1]; human, in vivo): 0% | Diarrhea, Any Grade ([1]; human, in vivo): 16% | Diarrhea, Grade 3 ([1]; human, in vivo): 1% | Diarrhea, Grade 4 ([1]; human, in vivo): 0% | Dyspnea, Any Grade ([1]; human, in vivo): 15% | Dyspnea, Grade 3 ([1]; human, in vivo): 1% | Dyspnea, Grade 4 ([1]; human, in vivo): 0% | Fatigue, Any Grade ([1]; human, in vivo): 39% | Fatigue, Grade 3 ([1]; human, in vivo): 2% | Fatigue, Grade 4 ([1]; human, in vivo): 0% | Headache, Any Grade ([1]; human, in vivo): 12% | Headache, Grade 3 ([1]; human, in vivo): 1% | Headache, Grade 4 ([1]; human, in vivo): 0% | Hypertension, Any Grade ([1]; human, in vivo): 10% | Hypertension, Grade 3 ([1]; human, in vivo): 5% | Hypertension, Grade 4 ([1]; human, in vivo): 0% | Infusion reaction, Any Grade ([1]; human, in vivo): 48% | Infusion reaction, Grade 3 ([1]; human, in vivo): 3% | Infusion reaction, Grade 4 ([1]; human, in vivo): 0% | Musculoskeletal chest pain, Any Grade ([1]; human, in vivo): 12% | Musculoskeletal chest pain, Grade 3 ([1]; human, in vivo): 1% | Musculoskeletal chest pain, Grade 4 ([1]; human, in vivo): 0% | Nasal congestion, Any Grade ([1]; human, in vivo): 17% | Nasal congestion, Grade 3 ([1]; human, in vivo): 0% | Nasal congestion, Grade 4 ([1]; human, in vivo): 0% | Nasopharyngitis, Any Grade ([1]; human, in vivo): 15% | Nasopharyngitis, Grade 3 ([1]; human, in vivo): 0% | Nasopharyngitis, Grade 4 ([1]; human, in vivo): 0% | Nausea, Any Grade ([1]; human, in vivo): 27% | Nausea, Grade 3 ([1]; human, in vivo): 0% | Nausea, Grade 4 ([1]; human, in vivo): 0% | Pain in extremity, Any Grade ([1]; human, in vivo): 15% | Pain in extremity, Grade 3 ([1]; human, in vivo): 1% | Pain in extremity, Grade 4 ([1]; human, in vivo): 0% | Pneumonia, Any Grade ([1]; human, in vivo): 11% | Pneumonia, Grade 3 ([1]; human, in vivo): 6% | Pneumonia, Grade 4 ([1]; human, in vivo): 0% | Pyrexia, Any Grade ([1]; human, in vivo): 21% | Pyrexia, Grade 3 ([1]; human, in vivo): 1% | Pyrexia, Grade 4 ([1]; human, in vivo): 0% | Serious adverse reaction, general physical health deterioration ([1]; human, in vivo): 3% | Serious adverse reaction, pneumonia ([1]; human, in vivo): 6% | Serious adverse reaction, pyrexia ([1]; human, in vivo): 3% | Upper respiratory tract infection, Any Grade ([1]; human, in vivo): 20% | Upper respiratory tract infection, Grade 3 ([1]; human, in vivo): 1% | Upper respiratory tract infection, Grade 4 ([1]; human, in vivo): 0% | Vomiting, Any Grade ([1]; human, in vivo): 14% | Vomiting, Grade 3 ([1]; human, in vivo): 0% | Vomiting, Grade 4 ([1]; human, in vivo): 0% | discontinuations due to adverse reactions ([1]; human, in vivo): 4% | treatment delay due to adverse reactions ([1]; human, in vivo): 15% | Anemia, Any Grade ([1]; lab abnormality): 45% | Anemia, Grade 3 ([1]; lab abnormality): 19% | Anemia, Grade 4 ([1]; lab abnormality): 0% | Lymphopenia, Any Grade ([1]; lab abnormality): 72% | Lymphopenia, Grade 3 ([1]; lab abnormality): 30% | Lymphopenia, Grade 4 ([1]; lab abnormality): 10% | Neutropenia, Any Grade ([1]; lab abnormality): 60% | Neutropenia, Grade 3 ([1]; lab abnormality): 17% | Neutropenia, Grade 4 ([1]; lab abnormality): 3% | Thrombocytopenia, Any Grade ([1]; lab abnormality): 48% | Thrombocytopenia, Grade 3 ([1]; lab abnormality): 10% | Thrombocytopenia, Grade 4 ([1]; lab abnormality): 8% | Overall response rate (ORR) ([2]; Independent Review Committee, IMWG criteria): 31 (29.2%) | Complete response (CR) ([2]; in vivo): 0 | Partial response (PR) ([2]; in vivo): 18 (17.0%) | Stringent complete response (sCR) ([2]; in vivo): 3 (2.8%) | Very good partial response (VGPR) ([2]; in vivo): 10 (9.4%) | median duration of response ([2]; in vivo): 7.4 months | median time to response ([2]; in vivo): 1 month | Overall response rate ([3]; 16 mg/kg, 42 patients): 36% | number of CR ([3]; 16 mg/kg, 42 patients): 1 | number of VGPR ([3]; 16 mg/kg, 42 patients): 3 | median duration of response ([3]; in vivo): not estimable | median time to response ([3]; in vivo): 1 month | Grade 3/4 infusion reaction at Week 2 or subsequent infusions ([4]; human, in vivo): Less than 1% | incidence of any grade infusion reactions, Week 2 infusion ([4]; human, in vivo): 2% | incidence of any grade infusion reactions, first (16 mg/kg, Week 1) infusion ([4]; human, in vivo): 37% | incidence of any grade infusion reactions, subsequent infusions (cumulative) ([4]; human, in vivo): 6% | time after completing infusion within which nearly all reactions occurred ([4]; human, in vivo): ≤ 4 h | patients who experienced an infusion reaction ([4]; in clinical trials): approximately half | time after infusion at which infusion reactions occurred ([4]; prior to the introduction of post-infusion medication): up to 48 hours | transient neutralizing antibodies against daratumumab ([5]; combination therapy): One patient | patients positive for anti-daratumumab antibodies ([5]; of the 1,050 evaluable combination therapy patients): 2 | mean serum Cmax at end of weekly dosing compared to first dose ([6]; approved recommended dosage, monotherapy or combination): 2.7 to 3 fold | Terminal half-life ([6]; combination therapy vs monotherapy): similar | trough serum concentration (Cmin) at end of weekly dosing, mean±SD ([6]; monotherapy): 573 ± 332 µg/mL | linear clearance, mean±SD ([6]; monotherapy, estimated): 171.4 ± 95.3 mL/day | terminal half-life associated with linear clearance, mean±SD ([6]; monotherapy, estimated): 18 ± 9 days | pharmacokinetics in specific populations ([6]; sex, age, mild and moderate hepatic impairment, renal impairment): No clinically significant differences | persistence of positive indirect antiglobulin test after the last infusion [7]: up to 6 months | time diluted solution can be stored refrigerated ([8]; 2-8 °C, protected from light): up to 24 hours | time diluted solution may be kept at room temperature ([8]; 15-25 °C, including infusion time): ≤ 15 h | absolute counts and percentages of total and activated NK cells [9]: Decreases | drug-drug interactions with lenalidomide, pomalidomide, bortezomib and dexamethasone [10]: no clinically relevant drug-drug interactions | incidence of any grade infusion-related reactions ([11]; combination treatment (n=97), first 16 mg/kg dose split over two days): 42% | infusion reactions on Day 2 of Week 1 ([11]; split first dose): 4% | infusion reactions with subsequent infusions ([11]; split first dose): 8%
